For one molecule, percent reduction of the interaction efficiency against wild-type Tif4631p results are on record in PMC4157582.

The target in the assay is TAP-Mud13p (S. cerevisiae) (UniProt Q08920). Kind of assay: pull-down.
Chain of UniProt Q08920 (Q08920 whole entry): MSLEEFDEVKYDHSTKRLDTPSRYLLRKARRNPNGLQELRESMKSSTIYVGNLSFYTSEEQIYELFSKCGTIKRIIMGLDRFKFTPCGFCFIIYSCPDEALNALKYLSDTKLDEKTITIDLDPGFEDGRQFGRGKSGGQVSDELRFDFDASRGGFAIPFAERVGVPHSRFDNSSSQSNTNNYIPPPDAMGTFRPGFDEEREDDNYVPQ

B1: Tif4631p Δ491-501 (natural protein)
chain: MTDETAHPTQSASKQESAALKQTGDDQQESQQQRGYTNYNNGSNYTQKKPYNSNRPHQQRGGKFGPNRYNNRGNYNGGGSFRGGHMGANSSNVPWTGYYNNYPVYYQPQQMAAAGSAPANPIPVEEKSPVPTKIEITTKSGEHLDLKEQHKAKLQSQERSTVSPQPESKLKETSDSTSTSTPTPTPSTNDSKASSEENISEAEKTRRNFIEQVKLRKAALEKKRKEQLEGSSGNNNIPMKTTPENVEEKGSDKPEVTEKTKPAEEKSAEPEVKQETPAEEGEQGEKGQIKEESTPKVLTFAERLKLKKQQKEREEKTEGKENKEVPVQEETKSAIESAPVPPSEQVKEETEVAETEQSNIDESATTPAIPTKSDEAEAEVEAEAGDAGTKIGLEAEIETTTDETDDGTNTVSHILNVLKDATPIEDVFSFNYPEGIEGPDIKYKKEHVKYTYGPTFLLQFKDKLNVKADAEWVQSTASKIVIPPGMGRGNSSRGHDFRNTSVRNMDDRANSRTSSKRRSKRMNDDRRSNRSYTSRRDRERGSYRNEEKREDDKPKEEVAPLVPSANRWVPKFKSKKTEKKLAPDGKTELLDKDEVERKMKSLLNKLTLEMFDAISSEILAIANISVWETNGETLKAVIEQIFLKACDEPHWSSMYAQLCGKVVKELNPDITDETNEGKTGPKLVLHYLVARCHAEFDKGWTDKLPTNEDGTPLEPEMMSEEYYAAASAKRRGLGLVRFIGFLYRLNLLTGKMMFECFRRLMKDLTDSPSEETLESVVELLNTVGEQFETDSFRTGQATLEGSQLLDSLFGILDNIIQTAKISSRIKFKLIDIKELRHDKNWNSDKKDNGPKTIQQIHEEEERQRQLKNNSRSNSRRTNNSSNRHSFRRDAPPASKDSFITTRTYSQRNSQRAPPPKEEPAAPTSTATNMFSALMGESDDEE
modifications: 35S-labelled
For the molecule B1, the percent reduction of the interaction efficiency against wild-type Tif4631p was over 30%.
